Experimental data published in patent US20050153368A1.

Target: Gα15 (mammalian)

Substance: Anopheles gambiae odorant receptor 1 (from UniProt Q8WTE7)
- clamp current on perfusion with 4-methyl phenol, voltage clamp of Xenopus oocytes expressing AgOR1/Gα15: 20 nA
